Test results published in US20110263827A1 (AbbVie / Abbott, published 2011).
Several values for one entry are separate records, joined by “and”; a condition that tells them apart may be missing. Identical values can stand only once.

Legend:
Assay in all cases: direct bind ELISA, ref Ab
VEGF = target: T1, VEGF (UniProt P15692-4 27-191, limits assumed, biotinylated)
T1 construct: ELISA antigen
Experimental: (§1) Enzyme Linked Immunosorbent Assays to screen for antibodies that bind a desired target antigen are performed as follows. […] Plates are washed once with PBS containing 0.05% Tween-20. […] Plates are washed once after blocking with PBS containing 0.05% Tween-20.
(§2) Fifty microliters per well of, e.g., mouse sera, hybridoma supernatants, or antibody or DVD-Ig preparations diluted in PBS containing 0.1% Bovine Serum Albumin (BSA) (Sigma, St. Louis, Mo.) is added to the ELISA plate prepared as described above and incubated for 1 hour at room temperature. Wells are washed three times with PBS containing 0.05% Tween-20. […] Plates are washed 3 times with PBS containing 0.05% Tween-20. […] Plates are washed 3 times with PBS containing 0.05% Tween-20. Fifty microliters of TMB solution (Sigma #T0440, St. Louis, Mo.) is added to each well and incubated for 10 minutes at room temperature. The reaction is stopped by addition of 1N sulphuric acid. Plates are read spectrophotmetrically at a wavelength of 450 nm.

HGF = target: T2, HGF (UniProt P14210 32-728, limits assumed, biotinylated)
T2 construct: ELISA antigen
Experimental: as §1, §2

DLL-4 = target: T3, DLL-4 (UniProt Q9NR61 27-524, limits assumed, biotinylated)
T3 construct: ELISA antigen
Experimental: as §1, §2

PLGF = target: T4, PLGF (UniProt P49763-2 21-149, limits assumed, biotinylated)
T4 construct: ELISA antigen; also called P1GF
T4 sequence (looked up): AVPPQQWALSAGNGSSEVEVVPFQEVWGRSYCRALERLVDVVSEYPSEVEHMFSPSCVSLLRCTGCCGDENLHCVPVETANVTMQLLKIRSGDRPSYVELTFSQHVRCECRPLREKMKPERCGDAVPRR
Experimental: as §1, §2

B1: AB071 (antibody, V domains shown)
VH: EVQLVESGGGLVQPGGSLRLSCAASGFTINASWIHWVRQAPGKGLEWVGAIYPYSGYTNYADSVKGRFTISADTSKNTAYLQMNSLRAEDTAVYYCARWGHSTSPWAMDYWGQGTLVTVSS
VL: DIQMTQSPSSLSASVGDRVTITCRASQVIRRSLAWYQQKPGKAPKLLIYAASNLASGVPSRFSGSGSGTDFTLTISSLQPEDFATYYCQQSNTSPLTFGQGTKVEIKR
notes: parent antibody
For B1, the EC50 (VEGF) was 1680 pM and 1570 pM.

B2: AB012 (antibody, V domains shown)
VH: QVQLVESGGGLVKPGGSLRLSCAASGFTFSDYYMSWIRQAPGKGLEWVSYISSSGSTIYYADSVKGRFTISRDNAKNSLYLQMNSLRAEDTAVYYCARDEYNSGWYVLFDYWGQGTLVTVSS
VL: DIQMTQSPSSVSASVGDRVTITCRASQGISSWLAWYQQKPGKAPNLLIYEASSLQSGVPSRFGGSGSGTDFTLTISSLQPEDFATYYCQQANGFPWTFGQGTKVEIKR
notes: parent antibody; also called HGF
B2 was tested, and the EC50 (HGF) was 150 pM and 190 pM.

B3: AB015 (antibody, V domains shown)
VH: EVQLVESGGGLVQPGGSLRLSCAASGFTFTDNWISWVRQAPGKGLEWVGYISPNSGFTYYADSVKGRFTISADTSKNTAYLQMNSLRAEDTAVYYCARDNFGGYFDYWGQGTLVTVSS
VL: DIQMTQSPSSLSASVGDRVTITCRASQDVSTAVAWYQQKPGKAPKLLIYSASFLYSGVPSRFSGSGSGTDFTLTISSLQPEDFATTYYCQQSYTGTVTFGQGTKVEIKR
notes: parent antibody; also called DLL-4
For B3, the EC50 (DLL-4) was 450 pM and 400 pM.

B4: AB047 (antibody, V domains shown)
VH: QVQLQQSGAELVKPGASVKISCKASGYTFTDYYINWVKLAPGQGLEWIGWIYPGSGNTKYNEKFKGKATLTIDTSSSTAYMQLSSLTSEDTAVYFCVRDSPFFDYWGQGTLLTVSS
VL: DIVLTQSPDSLAVSLGERVTMNCKSSQSLLNSGMRKSFLAWYQQKPGQSPKLLIYWASTRESGVPDRFTGSGSGTDFTLTISSVQAEDVAVYYCKQSYHLFTFGSGTKLEIKR
notes: parent antibody; also called PLGF; P1GF (ThromboGenix)
B4 was tested, and the EC50 (PLGF) was 210 pM and 250 pM.
